{"source": "paper PMC11229369", "binders": {"B1": {"name": "crRNA (30-nt guide, 36-nt repeat) (structured_RNA)", "RNA": "UGCUUCACGUAGGCCUUGGAGCCGUACAUGGUUGUAACAAGCCUAAGUUUGAAAGGUAAAAACAAC"}, "B2": {"name": "crRNA / target RNA3 (5'-U) (structured_RNA)", "RNA 1": "B1 RNA", "RNA 2": "UCAUGUACGGCUCCAAGGCCUACGUGAAGCA"}, "B3": {"name": "crRNA / target RNA1 (5'-G) (structured_RNA)", "RNA 1": "B1 RNA", "RNA 2": "B2 RNA 2 with U1G"}}, "key": {"[1]": {"biological_target": "T1, Cas13h1 (UniProt PDB:8WCE_1 1-1111)", "T1 sequence": "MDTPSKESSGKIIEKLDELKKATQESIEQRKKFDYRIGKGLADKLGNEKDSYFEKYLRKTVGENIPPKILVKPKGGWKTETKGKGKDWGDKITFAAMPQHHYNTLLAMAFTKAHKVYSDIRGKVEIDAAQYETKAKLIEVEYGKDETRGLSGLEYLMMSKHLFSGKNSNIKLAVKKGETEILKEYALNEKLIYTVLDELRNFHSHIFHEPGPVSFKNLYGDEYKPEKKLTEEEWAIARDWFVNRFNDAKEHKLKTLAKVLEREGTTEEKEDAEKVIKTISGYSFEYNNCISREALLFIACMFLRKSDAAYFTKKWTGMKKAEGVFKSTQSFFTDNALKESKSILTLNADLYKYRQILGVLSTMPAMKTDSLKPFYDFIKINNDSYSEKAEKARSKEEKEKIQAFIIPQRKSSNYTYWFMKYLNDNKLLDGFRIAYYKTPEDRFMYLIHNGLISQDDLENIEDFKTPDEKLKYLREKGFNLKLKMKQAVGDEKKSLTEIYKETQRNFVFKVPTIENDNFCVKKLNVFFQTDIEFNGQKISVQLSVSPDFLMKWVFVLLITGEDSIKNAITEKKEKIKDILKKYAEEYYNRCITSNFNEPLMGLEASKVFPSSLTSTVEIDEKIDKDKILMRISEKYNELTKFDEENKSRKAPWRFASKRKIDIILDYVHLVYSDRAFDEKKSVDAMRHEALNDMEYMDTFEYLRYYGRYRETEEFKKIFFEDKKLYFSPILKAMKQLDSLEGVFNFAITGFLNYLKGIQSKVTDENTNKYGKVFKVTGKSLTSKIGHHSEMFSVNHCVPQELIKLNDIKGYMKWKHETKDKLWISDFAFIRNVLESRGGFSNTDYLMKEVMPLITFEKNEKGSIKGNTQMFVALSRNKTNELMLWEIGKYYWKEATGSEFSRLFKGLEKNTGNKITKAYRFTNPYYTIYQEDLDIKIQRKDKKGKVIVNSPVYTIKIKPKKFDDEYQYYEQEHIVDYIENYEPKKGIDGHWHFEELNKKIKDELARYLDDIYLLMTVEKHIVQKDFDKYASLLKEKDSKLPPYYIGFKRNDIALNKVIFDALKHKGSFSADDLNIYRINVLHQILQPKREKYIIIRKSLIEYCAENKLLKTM", "test": "cryo-EM"}, "[2]": {"biological_target": "T2, Cas13h1 R200A (catalytically dead) (UniProt PDB:8WCE_1 1-1111, R200A)", "T2 sequence": "T1 sequence with R200A", "test": "cryo-EM"}, "[3]": {"biological_target": "T2, Cas13h1 R200A (catalytically dead)", "test": "cryo-EM", "remark": "listed apart in the source"}, "[4]": {"biological_target": "T3, Cas13h1 Middle (UniProt PDB:8WCE_1 340-930)", "T3 sequence": "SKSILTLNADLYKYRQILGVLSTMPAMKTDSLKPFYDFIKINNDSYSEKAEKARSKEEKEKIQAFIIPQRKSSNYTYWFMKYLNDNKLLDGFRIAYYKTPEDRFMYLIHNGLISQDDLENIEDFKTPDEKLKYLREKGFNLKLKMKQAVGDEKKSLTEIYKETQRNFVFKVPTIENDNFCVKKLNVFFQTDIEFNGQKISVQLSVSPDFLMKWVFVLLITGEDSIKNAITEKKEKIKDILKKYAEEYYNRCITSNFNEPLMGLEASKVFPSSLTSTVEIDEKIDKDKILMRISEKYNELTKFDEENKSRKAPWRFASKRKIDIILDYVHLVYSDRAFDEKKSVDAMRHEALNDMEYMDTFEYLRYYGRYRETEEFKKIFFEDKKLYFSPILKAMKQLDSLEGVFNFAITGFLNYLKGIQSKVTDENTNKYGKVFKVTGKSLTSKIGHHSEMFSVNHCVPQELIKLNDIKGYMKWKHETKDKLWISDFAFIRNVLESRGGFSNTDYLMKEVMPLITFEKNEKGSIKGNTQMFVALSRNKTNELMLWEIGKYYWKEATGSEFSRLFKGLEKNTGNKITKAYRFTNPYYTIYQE", "test": "size exclusion chromatography"}}, "note": "Substitutions are numbered along the chain they refer to. Read-outs that look alike come from different tables or passages of the source.", "data": [{"binder": "B1", "values": [{"measurement": "binding result", "setting": "[1]", "result": "binds"}]}, {"binder": "B2", "values": [{"measurement": "binding result", "setting": "[2]", "result": "binds"}]}, {"binder": "B3", "values": [{"measurement": "binding result", "setting": "[3]", "result": "binds"}, {"measurement": "binding result", "setting": "[4]", "result": "binds"}]}]}
